According to article PMC1885643 (Nucleic Acids Research, 2007):
Like-named read-outs stand apart in the source and are kept apart here.

B4: FLAG-hRad1 (natural protein, human, UniProt O60671 1-282, looked up)
chain: MPLLTQQIQDEDDQYSLVASLDNVRNLSTILKAIHFREHATCFATKNGIKVTVENAKCVQANAFIQAGIFQEFKVQEESVTFRINLTVLLDCLSIFGSSPMPGTLTALRMCYQGYGYPLMLFLEEGGVVTVCKINTQEPEETLDFDFCSTNVINKIILQSEGLREAFSELDMTSEVLQITMSPDKPYFRLSTFGNAGSSHLDYPKDSDLMEAFHCNQTQVNRYKISLLKPSTKALVLSCKVSIRTDNRGFLSLQYMIRNEDGQICFVEYYCCPDEEVPESES

Tests used:
[1] = molecular target: T1, processed intact hNEIL1 (residues 2–390) (human, UniProt Q96FI4 2-390); test: pull-down
[2] = molecular target: T2, hNEIL1-CΔ40 (residues 2–350) (human, UniProt Q96FI4 2-350); test: pull-down
[3] = molecular target: T1, processed intact hNEIL1 (residues 2–390); test: pull-down; remark: listed apart in the source
[4] = molecular target: T2, hNEIL1-CΔ40 (residues 2–350); test: pull-down; remark: listed apart in the source
[5] = molecular target: GST-hNEIL1 (residues 1–390) (human, UniProt Q96FI4 1-390); test: pull-down
FLAG-hRad1 = molecular target: B4; test: SEC
FLAG-hRad9 = molecular target: T3, FLAG-hRad9 (human, UniProt Q99638 1-391); test: SEC
T3 sequence (looked up): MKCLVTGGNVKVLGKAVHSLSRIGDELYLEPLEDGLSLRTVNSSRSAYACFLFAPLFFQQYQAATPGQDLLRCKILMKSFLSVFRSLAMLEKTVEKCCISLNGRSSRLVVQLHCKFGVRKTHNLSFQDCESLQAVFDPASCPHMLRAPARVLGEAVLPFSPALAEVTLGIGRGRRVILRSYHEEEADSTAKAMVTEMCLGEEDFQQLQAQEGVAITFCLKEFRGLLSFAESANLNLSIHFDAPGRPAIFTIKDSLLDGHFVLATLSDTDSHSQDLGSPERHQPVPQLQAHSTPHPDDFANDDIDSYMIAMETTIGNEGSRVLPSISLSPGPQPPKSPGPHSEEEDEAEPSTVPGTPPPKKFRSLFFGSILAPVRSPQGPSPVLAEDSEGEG

T1 sequence (Q96FI4 2-390): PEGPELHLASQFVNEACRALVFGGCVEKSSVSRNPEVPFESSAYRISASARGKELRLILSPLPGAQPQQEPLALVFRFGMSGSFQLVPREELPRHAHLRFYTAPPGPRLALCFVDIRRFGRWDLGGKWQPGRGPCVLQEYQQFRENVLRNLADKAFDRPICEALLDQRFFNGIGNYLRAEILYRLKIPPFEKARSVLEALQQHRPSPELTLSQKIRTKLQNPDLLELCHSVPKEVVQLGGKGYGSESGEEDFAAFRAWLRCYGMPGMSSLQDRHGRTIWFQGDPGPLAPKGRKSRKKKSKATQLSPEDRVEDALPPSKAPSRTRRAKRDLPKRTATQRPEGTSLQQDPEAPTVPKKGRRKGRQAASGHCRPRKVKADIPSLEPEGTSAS
T2 sequence (Q96FI4 2-350, stated change not applied): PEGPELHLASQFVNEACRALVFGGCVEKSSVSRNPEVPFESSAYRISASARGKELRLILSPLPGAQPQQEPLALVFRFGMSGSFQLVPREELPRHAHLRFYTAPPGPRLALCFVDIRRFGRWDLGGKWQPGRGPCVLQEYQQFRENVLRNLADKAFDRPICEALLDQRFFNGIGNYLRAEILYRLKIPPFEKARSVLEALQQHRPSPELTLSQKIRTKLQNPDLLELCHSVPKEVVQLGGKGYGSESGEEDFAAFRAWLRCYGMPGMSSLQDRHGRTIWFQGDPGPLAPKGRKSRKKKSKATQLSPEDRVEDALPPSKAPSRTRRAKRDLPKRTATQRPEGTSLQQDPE
Chain of GST-hNEIL1 (residues 1–390) (Q96FI4 whole entry, the tested form may be a part): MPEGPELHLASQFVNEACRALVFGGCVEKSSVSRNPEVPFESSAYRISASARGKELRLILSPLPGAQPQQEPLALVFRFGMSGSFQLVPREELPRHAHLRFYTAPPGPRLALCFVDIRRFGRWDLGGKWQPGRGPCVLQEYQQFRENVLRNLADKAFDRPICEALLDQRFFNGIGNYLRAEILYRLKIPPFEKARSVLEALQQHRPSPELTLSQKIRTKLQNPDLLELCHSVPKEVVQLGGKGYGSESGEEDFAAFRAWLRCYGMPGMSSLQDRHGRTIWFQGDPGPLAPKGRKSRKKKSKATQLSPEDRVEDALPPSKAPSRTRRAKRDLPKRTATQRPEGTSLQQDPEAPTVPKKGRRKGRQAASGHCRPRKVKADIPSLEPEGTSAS

B1: GST-hHus1 (natural protein, human, UniProt O60921 1-280, looked up)
chain: MKFRAKIVDGACLNHFTRISNMIAKLAKTCTLRISPDKLNFILCDKLANGGVSMWCELEQENFFNEFQMEGVSAENNEIYLELTSENLSRALKTAQNARALKIKLTNKHFPCLTVSVELLSMSSSSRIVTHDIPIKVIPRKLWKDLQEPVVPDPDVSIYLPVLKTMKSVVEKMKNISNHLVIEANLDGELNLKIETELVCVTTHFKDLGNPPLASESTHEDRNVEHMAEVHIDIRKLLQFLAGQQVNPTKALCNIVNNKMVHFDLLHEDVSLQYFIPALS
binding result [1]: binds
binding result [2]: binds

B2: His-tagged hHus1 (natural protein, human, UniProt O60921 1-280, looked up)
chain: MKFRAKIVDGACLNHFTRISNMIAKLAKTCTLRISPDKLNFILCDKLANGGVSMWCELEQENFFNEFQMEGVSAENNEIYLELTSENLSRALKTAQNARALKIKLTNKHFPCLTVSVELLSMSSSSRIVTHDIPIKVIPRKLWKDLQEPVVPDPDVSIYLPVLKTMKSVVEKMKNISNHLVIEANLDGELNLKIETELVCVTTHFKDLGNPPLASESTHEDRNVEHMAEVHIDIRKLLQFLAGQQVNPTKALCNIVNNKMVHFDLLHEDVSLQYFIPALS
binding result [3]: binds
binding result [4]: binds

B3: FLAG-hHus1 (natural protein, human, UniProt O60921 1-280, looked up)
chain: MKFRAKIVDGACLNHFTRISNMIAKLAKTCTLRISPDKLNFILCDKLANGGVSMWCELEQENFFNEFQMEGVSAENNEIYLELTSENLSRALKTAQNARALKIKLTNKHFPCLTVSVELLSMSSSSRIVTHDIPIKVIPRKLWKDLQEPVVPDPDVSIYLPVLKTMKSVVEKMKNISNHLVIEANLDGELNLKIETELVCVTTHFKDLGNPPLASESTHEDRNVEHMAEVHIDIRKLLQFLAGQQVNPTKALCNIVNNKMVHFDLLHEDVSLQYFIPALS
binding result [5]: binds
binding result (FLAG-hRad1): binds
binding result (FLAG-hRad9): binds

B4
binding result [5]: binds
binding result (FLAG-hRad9): binds

B5: GST-hRad1 (natural protein, human, UniProt O60671 1-282, looked up)
chain: MPLLTQQIQDEDDQYSLVASLDNVRNLSTILKAIHFREHATCFATKNGIKVTVENAKCVQANAFIQAGIFQEFKVQEESVTFRINLTVLLDCLSIFGSSPMPGTLTALRMCYQGYGYPLMLFLEEGGVVTVCKINTQEPEETLDFDFCSTNVINKIILQSEGLREAFSELDMTSEVLQITMSPDKPYFRLSTFGNAGSSHLDYPKDSDLMEAFHCNQTQVNRYKISLLKPSTKALVLSCKVSIRTDNRGFLSLQYMIRNEDGQICFVEYYCCPDEEVPESES
binding result [1]: binds
binding result [2]: binds
